The data set deals with Escherichia coli TOP10. Briefly: shrunken log2 fold change of peptide-encoding DNA abundance (4.5 h post-induction vs induction); higher = less antimicrobial activity (less host growth inhibition). The settings on record: time post-induction: 4.5 h; library: site-saturation at positions 5, 18, 19, 20.
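Note: peptides expressed intracellularly from a pBAD plasmid library in pooled LB shake-flask culture, induced with 0.3% L-arabinose, DNA abundance read by NGS, three biological replicates, DESeq2 with apeglm shrinkage.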

Turning to RRIRPRPPRLPRPRPRPHQCPRP, the “shrunken log2 fold change” value is -0.0701.

As to RRIRERPPRLPRPRPRPADDPRP, the “shrunken log2 fold change” value turned out to be 0.000221. For RRIRNRPPRLPRPRPRPVYAPRP, the “shrunken log2 fold change” value is -0.128. Turning to RRIRSRPPRLPRPRPRPTYKPRP, the “shrunken log2 fold change” value was -0.495.

In the case of RRIRGRPPRLPRPRPRPFPPPRP, the “shrunken log2 fold change” value came out at 0.378. In the case of RRIRWRPPRLPRPRPRPFCIPRP, the “shrunken log2 fold change” value is -0.293. To RRIRCRPPRLPRPRPRPTTCPRP belongs -0.293; to RRIRQRPPRLPRPRPRPHAMPRP, -0.0121. For the sequence RRIRHRPPRLPRPRPRPQMFPRP, the “shrunken log2 fold change” value is -0.0824. For RRIRGRPPRLPRPRPRPQQSPRP, the “shrunken log2 fold change” value came out at 0.465. To RRIRCRPPRLPRPRPRPELAPRP belongs 0.403.

For RRIRVRPPRLPRPRPRPHMIPRP, the “shrunken log2 fold change” value is -0.463. With RRIRDRPPRLPRPRPRPSWHPRP, the “shrunken log2 fold change” value is -0.0852. As to RRIRIRPPRLPRPRPRPLEVPRP, the “shrunken log2 fold change” value is -0.0958. The figure for RRIRVRPPRLPRPRPRPDIQPRP is 1.23; for RRIRCRPPRLPRPRPRPGDYPRP it is -0.081. Turning to RRIRRRPPRLPRPRPRPHFGPRP, the “shrunken log2 fold change” value was determined as 0.111. The figure for RRIRYRPPRLPRPRPRPSHCPRP is -0.549; for RRIRHRPPRLPRPRPRPFNEPRP it is -0.64; for RRIRQRPPRLPRPRPRPQLSPRP it is -0.0914. To RRIRCRPPRLPRPRPRPHFAPRP belongs 0.0672; to RRIRRRPPRLPRPRPRPIAEPRP, 0.446. As for RRIRNRPPRLPRPRPRPDWSPRP, the “shrunken log2 fold change” value is -0.256. The figure for RRIRYRPPRLPRPRPRPVHLPRP is -0.328; for RRIRFRPPRLPRPRPRPWEYPRP it is 0.0231; for RRIRWRPPRLPRPRPRPVQYPRP it is -0.108. Consider RRIRIRPPRLPRPRPRPMKEPRP, for which the “shrunken log2 fold change” value stood at 0.116. With RRIRQRPPRLPRPRPRPREMPRP, the “shrunken log2 fold change” value was 0.0554. To RRIRTRPPRLPRPRPRPWATPRP belongs -0.00422; to RRIRARPPRLPRPRPRPTICPRP, 0.144; to RRIRYRPPRLPRPRPRPQWCPRP, -0.219.

Consider RRIRRRPPRLPRPRPRPLAVPRP, for which the “shrunken log2 fold change” value stood at 0.176.

Regarding RRIRARPPRLPRPRPRPVINPRP, the “shrunken log2 fold change” value was -0.383.

Regarding RRIRSRPPRLPRPRPRPTREPRP, the “shrunken log2 fold change” value came to 0.536. For RRIRDRPPRLPRPRPRPDFQPRP, the “shrunken log2 fold change” value turned out to be 0.189.

Consider RRIRFRPPRLPRPRPRPYWSPRP, for which the “shrunken log2 fold change” value is -0.428.

Regarding RRIRVRPPRLPRPRPRPSDGPRP, the “shrunken log2 fold change” value was 0.000198. The figure for RRIRVRPPRLPRPRPRPCSIPRP is -0.0267.

For the sequence RRIRWRPPRLPRPRPRPCMMPRP, the “shrunken log2 fold change” value is -0.229. The figure for RRIRARPPRLPRPRPRPTYAPRP is 0.2; for RRIRDRPPRLPRPRPRPEKDPRP it is 0.194; for RRIRCRPPRLPRPRPRPIQDPRP it is -0.49. Take RRIRCRPPRLPRPRPRPEILPRP: the “shrunken log2 fold change” value was -0.0141.

Take RRIRFRPPRLPRPRPRPDYEPRP: the “shrunken log2 fold change” value was -0.407. For RRIRWRPPRLPRPRPRPGQAPRP, the “shrunken log2 fold change” value was found to be 1.06. The figure for RRIRWRPPRLPRPRPRPFWCPRP is 0.193; for RRIRWRPPRLPRPRPRPMYDPRP it is -0.158; for RRIRNRPPRLPRPRPRPFISPRP it is -0.0484. To RRIRWRPPRLPRPRPRPYVLPRP belongs -0.843; to RRIRERPPRLPRPRPRPMQRPRP, -0.00559; to RRIRSRPPRLPRPRPRPKCCPRP, -0.0585. For the sequence RRIRFRPPRLPRPRPRPFTRPRP, the “shrunken log2 fold change” value is 0.0083. As to RRIRFRPPRLPRPRPRPNDSPRP, the “shrunken log2 fold change” value was -0.0675. As to RRIRIRPPRLPRPRPRPSDPPRP, the “shrunken log2 fold change” value is -0.136. To RRIRLRPPRLPRPRPRPPYDPRP belongs -0.188; to RRIRERPPRLPRPRPRPMKMPRP, 0.0259; to RRIRVRPPRLPRPRPRPYTDPRP, -0.339. With RRIRRRPPRLPRPRPRPDEDPRP, the “shrunken log2 fold change” value was 0.219. As for RRIRRRPPRLPRPRPRPLHGPRP, the “shrunken log2 fold change” value worked out at 0.233.

Turning to RRIRSRPPRLPRPRPRPAETPRP, the “shrunken log2 fold change” value turned out to be 0.114. The figure for RRIRHRPPRLPRPRPRPQGWPRP is 0.0705. The figure for RRIRWRPPRLPRPRPRPCLQPRP is -0.21; for RRIRVRPPRLPRPRPRPAWLPRP it is 0.186. The figure for RRIRTRPPRLPRPRPRPKSGPRP is 0.0903. With RRIRCRPPRLPRPRPRPSLYPRP, the “shrunken log2 fold change” value is -0.518. The figure for RRIRLRPPRLPRPRPRPRKFPRP is -0.0381; for RRIRPRPPRLPRPRPRPGYSPRP it is -0.0781. The figure for RRIRCRPPRLPRPRPRPKKAPRP is -0.235; for RRIRWRPPRLPRPRPRPDACPRP it is 0.00464; for RRIRTRPPRLPRPRPRPHDMPRP it is 0.000904.

With RRIRKRPPRLPRPRPRPMHWPRP, the “shrunken log2 fold change” value came to 0.136.

As for RRIRPRPPRLPRPRPRPCYRPRP, the “shrunken log2 fold change” value was -0.154. The figure for RRIRDRPPRLPRPRPRPRWNPRP is 0.0976. The figure for RRIRNRPPRLPRPRPRPEPLPRP is 0.00741; for RRIRVRPPRLPRPRPRPPEPPRP it is 0.382; for RRIRNRPPRLPRPRPRPEPEPRP it is 0.0273. With RRIRSRPPRLPRPRPRPMGLPRP, the “shrunken log2 fold change” value amounted to 0.101. To RRIRIRPPRLPRPRPRPRSWPRP belongs 0.394.

In the case of RRIRSRPPRLPRPRPRPQKGPRP, the “shrunken log2 fold change” value is -0.0456. In the case of RRIRTRPPRLPRPRPRPLTKPRP, the “shrunken log2 fold change” value amounted to 0.0652. The figure for RRIRNRPPRLPRPRPRPNCPPRP is -0.361; for RRIRRRPPRLPRPRPRPSFIPRP it is -0.391. The figure for RRIRGRPPRLPRPRPRPTRRPRP is 0.663; for RRIRARPPRLPRPRPRPHSPPRP it is 0.122.

Take RRIRARPPRLPRPRPRPPRIPRP: the “shrunken log2 fold change” value was 0.827.

With RRIRMRPPRLPRPRPRPENCPRP, the “shrunken log2 fold change” value stood at 0.0159.

Consider RRIRSRPPRLPRPRPRPFCVPRP, for which the “shrunken log2 fold change” value is -0.128. The figure for RRIRYRPPRLPRPRPRPRSLPRP is -0.0256; for RRIRWRPPRLPRPRPRPWQYPRP it is -0.0277. The figure for RRIRSRPPRLPRPRPRPSDQPRP is -0.127; for RRIRYRPPRLPRPRPRPIFSPRP it is -1.43; for RRIRRRPPRLPRPRPRPYAEPRP it is 0.132. The figure for RRIRGRPPRLPRPRPRPPQFPRP is 0.676; for RRIRFRPPRLPRPRPRPPREPRP it is 0.43; for RRIRFRPPRLPRPRPRPAWAPRP it is 0.953. Regarding RRIRRRPPRLPRPRPRPIWDPRP, the “shrunken log2 fold change” value was 0.604.

For the sequence RRIRHRPPRLPRPRPRPQAYPRP, the “shrunken log2 fold change” value is -0.451. To RRIRSRPPRLPRPRPRPWGEPRP belongs 0.00882; to RRIRTRPPRLPRPRPRPVCNPRP, -0.345.

Turning to RRIRARPPRLPRPRPRPPEAPRP, the “shrunken log2 fold change” value worked out at 0.699. As for RRIRCRPPRLPRPRPRPIYWPRP, the “shrunken log2 fold change” value was -0.815. Consider RRIRMRPPRLPRPRPRPDKQPRP, for which the “shrunken log2 fold change” value is 0.0746. With RRIRARPPRLPRPRPRPHEGPRP, the “shrunken log2 fold change” value was determined as 0.148. In the case of RRIRTRPPRLPRPRPRPTWPPRP, the “shrunken log2 fold change” value amounted to 0.439. As for RRIRGRPPRLPRPRPRPNCMPRP, the “shrunken log2 fold change” value turned out to be 0.196. Turning to RRIRTRPPRLPRPRPRPFFMPRP, the “shrunken log2 fold change” value was -0.231. The figure for RRIRSRPPRLPRPRPRPMDGPRP is -0.095. The figure for RRIRMRPPRLPRPRPRPRICPRP is 0.113; for RRIRMRPPRLPRPRPRPHKLPRP it is -0.0702; for RRIRTRPPRLPRPRPRPHWFPRP it is -0.132.

Consider RRIRNRPPRLPRPRPRPHTAPRP, for which the “shrunken log2 fold change” value is -0.158.

With RRIRKRPPRLPRPRPRPVTSPRP, the “shrunken log2 fold change” value is 0.0678. To RRIRTRPPRLPRPRPRPFDQPRP belongs 0.176; to RRIRARPPRLPRPRPRPTHCPRP, 0.518. The figure for RRIRTRPPRLPRPRPRPDENPRP is 0.0019. As to RRIRARPPRLPRPRPRPWYGPRP, the “shrunken log2 fold change” value was -0.634. As to RRIRIRPPRLPRPRPRPCLTPRP, the “shrunken log2 fold change” value turned out to be 0.0747. Turning to RRIRTRPPRLPRPRPRPQQKPRP, the “shrunken log2 fold change” value is -0.0118. Turning to RRIRNRPPRLPRPRPRPWMVPRP, the “shrunken log2 fold change” value was found to be 0.131. The figure for RRIRKRPPRLPRPRPRPASWPRP is 0.625; for RRIRHRPPRLPRPRPRPVDRPRP it is -0.0926; for RRIRLRPPRLPRPRPRPIHEPRP it is 0.139.

Take RRIRMRPPRLPRPRPRPHWWPRP: the “shrunken log2 fold change” value was 0.325. The figure for RRIRNRPPRLPRPRPRPMHEPRP is 0.0425; for RRIRERPPRLPRPRPRPHCHPRP it is -0.657.

The values above are taken from the supplement of paper PMC9112550, “Optimization of the antimicrobial peptide Bac7 by deep mutational scanning” (BMC Biology, 2022).
